T1: recombinant human BCMA Fc(kih) (human, UniProt Q02223 4-53, biotin on the avi-tag at the C-terminus of the Fc knob chain (BirA, in vivo))
T1 construct: range 4-53;domain: Fc portion (hole chain); Monomeric Fc fusion made in HEK EBNA cells: one BCMA extracellular domain on the knob chain, paired with an unfused hole chain; also called huBCMA Fc(kih); biotinylated human BCMA; not shown: hinge and Fc portion of human IgG1, knob chain (knobs-into-holes)
T1 chain (looked up): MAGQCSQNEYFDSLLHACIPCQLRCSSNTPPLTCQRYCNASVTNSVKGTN

T2: human BCMA on BCMA-expressing multiple myeloma cells (H929, RPMI-8226) (human, UniProt Q02223 1-184)
T2 construct: whole, on cells; Endogenous BCMA on H929 (ATCC CRL-9068) or RPMI 8226 (ATCC CCL-155) cells; also called TNFRSF17; H929 cells
T2 sequence (looked up): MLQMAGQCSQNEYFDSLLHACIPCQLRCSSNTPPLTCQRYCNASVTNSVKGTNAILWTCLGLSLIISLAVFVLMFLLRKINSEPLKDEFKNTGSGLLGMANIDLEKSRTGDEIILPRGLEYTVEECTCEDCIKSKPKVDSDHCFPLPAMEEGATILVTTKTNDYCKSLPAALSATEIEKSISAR


Key:
[1] = biological target: T1, recombinant human BCMA Fc(kih); experiment: SPR, Biacore T200, 25 C; IgG captured by anti-human Fab antibody on CM5 chip, BCMA Fc(kih) as analyte, 1:1 Langmuir
[2] = biological target: T2, human BCMA on BCMA-expressing multiple …; experiment: flow cytometry on H929 cells; IgG 20 µg/mL incubated together with competitor Δ-APRIL 2.5 µg/mL; fluorochrome-conjugated anti-human Fc detection
[3] = biological target: T1, recombinant human BCMA Fc(kih); experiment: SPR, ProteOn XPR36, 25 C; biotinylated BCMA on NLC chip by neutravidin capture, Fab as analyte, 1:1 Langmuir
[4] = biological target: T1, recombinant human BCMA Fc(kih); experiment: competition ELISA; biotinylated human BCMA on neutravidin plate saturated with 500 or 1000 nM Fab, competitor murine APRIL 50 nM (1000 ng/mL); anti-FLAG-HRP, OD450-650
[5] = biological target: T1, recombinant human BCMA Fc(kih); experiment: competition ELISA; biotinylated human BCMA on neutravidin plate saturated with 500 or 1000 nM Fab, competitor murine APRIL 6.25 nM (140 ng/mL); anti-FLAG-HRP, OD450-650

Kd [1] [nM]	koff [1] [s⁻¹]	kon [1] [M⁻¹ s⁻¹]	Reduction (↓) in binding of anti-BCMA antibodies in presence of APRIL [2] [%]	Kd [3] [nM]	Reduction (↓) in OD values in presence of muAPRIL [4] [%]	Reduction (↓) in OD values in presence of muAPRIL [5] [%]	Binder
5.1	0.00036	72000	25				13A4 anti-BCMA IgG (antibody, V domains shown) VH: EVQLVQSGAEVKKPGESLKISCKGSGYSFTSYWIGWVRQMPGKGLEWMGIIYPGDSDTRYSPSFQGQVTISADKSISTAYLQWSSLKASDTAMYYCARNGYLGDYWGQGTLVTVSS VL: not shown
				1.8	13.1	7.7	anti-BCMA Fab clone 13A4 (Fab, V domains shown, detected by anti-FLAG antibody) VH: EVQLVQSGAEVKKPGESLKISCKGSGYSFTSYWIGWVRQMPGKGLEWMGIIYPGDSDTRYSPSFQGQVTISADKSISTAYLQWSSLKASDTAMYYCARNGYLGDYWGQGTLVTVSS VL: not shown

— patent US20150368351A1 (ENGMAB SARL, published 2015)
